Reference: paper PMC3741231

Columns and labels:
[1] = biological target: human wild type PCSK9-V5 (prosegment≡PCSK9 complex) in conditioned medium (human) (UniProt Q8NBP7)
[2] = biological target: human wild type PCSK9-V5 (prosegment≡PCSK9 complex) in conditioned medium (human) (UniProt Q8NBP7); remark: listed apart in the source
[3] = biological target: PCSK9 D374Y-V5 (gain-of-function natural mutant) (human) (UniProt Q8NBP7)
[4] = biological target: PCSK9 Δ33-58 D374Y-V5 (human) (UniProt Q8NBP7)
[5] = biological target: PCSK9 Δ33-58-V5 (lacking the acidic N-terminal region of the prosegment) (human) (UniProt Q8NBP7)
[6] = biological target: human wild type PCSK9-V5 (prosegment≡PCSK9 complex) in conditioned medium (human) (UniProt Q8NBP7); remark: listed apart in the source

reduction by Fcpro (3 µg/ml, pre-incubated with 1 µg/ml PCSK9, both in HEK293 conditioned media) of the LDLR degradation induced by extracellular PCSK9 in HepG2/shPCSK9 cells, 4 h at 37°C [1] [%]	reversal by co-expressed Fcpro (DNA ratio PCSK9:Fcpro 1:3; ratios up to 1:9 gave no more) of the ∼44% LDLR degradation induced by PCSK9; total LDLR by Western blot of cell lysates [2] [%]	total LDLR level (normalised to β-actin) in HepG2/shPCSK9 cells co-expressing Fcpro and PCSK9 D374Y, against 0.1 with D374Y alone (relative LDLR level) [3]	total LDLR level (normalised to β-actin) in HepG2/shPCSK9 cells co-expressing Fcpro and PCSK9 Δ33-58 D374Y, against 0.08 with Δ33-58 D374Y alone (relative LDLR level) [4]	fold increase of total LDLR on co-expression of Fcpro with PCSK9 Δ33-58 in HepG2/shPCSK9 cells [5] [fold]	fold increase of total LDLR on co-expression of Fcpro with wild type PCSK9 in HepG2/shPCSK9 cells [6] [fold]	Substance
60						Fcpro (Fc of human IgG1, hinge of human IgG1 and PCSK9 prosegment aa 31-152) (from UniProt Q8NBP7 31-152) (Fc fusion)
	75	0.44	0.31	1.4	1.4	Fcpro expressed in HepG2/shPCSK9 cells (from UniProt Q8NBP7 31-152) (Fc fusion)
